# Results reported in article PMC5389554 (Nucleic Acids Research, 2017).
# Columns and labels:
# non-reducing SDS-PAGE = molecular target: the molecule itself; test: non-reducing SDS-PAGE
# cross-linking = molecular target: the molecule itself; test: cross-linking
# [1] = molecular target: the molecule itself; test: non-reducing SDS-PAGE with immunoblot
protein,measurement,setting,value
"GST-CNBP (recombinant cellular nucleic acid-binding protein with GST tag) (natural protein, mouse, UniProt P53996 1-178, looked up) MSSNECFKCGRSGHWARECPTGGGRGRGMRSRGRGGFTSDRGFQFVSSSLPDICYRCGESGHLAKDCDLQEDEACYNCGRGGHIAKDCKEPKREREQCCYNCGKPGHLARDCDHADEQKCYSCGEFGHIQKDCTKVKCYRCGETGHVAINCSKTSEVNCYRCGESGHLARECTIEATA",stoichiometry N,non-reducing SDS-PAGE,2
"endogenous CNBP (cellular nucleic acid-binding protein) (natural protein, mouse (endogenous in RAW 264.7), UniProt P53996 1-178, looked up) MSSNECFKCGRSGHWARECPTGGGRGRGMRSRGRGGFTSDRGFQFVSSSLPDICYRCGESGHLAKDCDLQEDEACYNCGRGGHIAKDCKEPKREREQCCYNCGKPGHLARDCDHADEQKCYSCGEFGHIQKDCTKVKCYRCGETGHVAINCSKTSEVNCYRCGESGHLARECTIEATA",stoichiometry N,cross-linking,2
"CNBP-HA (wild type) (natural protein, mouse, UniProt P53996 1-178, looked up) MSSNECFKCGRSGHWARECPTGGGRGRGMRSRGRGGFTSDRGFQFVSSSLPDICYRCGESGHLAKDCDLQEDEACYNCGRGGHIAKDCKEPKREREQCCYNCGKPGHLARDCDHADEQKCYSCGEFGHIQKDCTKVKCYRCGETGHVAINCSKTSEVNCYRCGESGHLARECTIEATA",stoichiometry N,[1],2
